Experimental findings from patent US20240270821A1, “GIP/GLP1/GCG TRI-RECEPTOR AGONISTS AND USES THEREOF” (priority 2023, published 2024) are described below.

Numbering of substitutions follows the chain as printed.

First the molecules themselves.
T1: human GIP receptor (human) (UniProt P48546)
T1 sequence (looked up): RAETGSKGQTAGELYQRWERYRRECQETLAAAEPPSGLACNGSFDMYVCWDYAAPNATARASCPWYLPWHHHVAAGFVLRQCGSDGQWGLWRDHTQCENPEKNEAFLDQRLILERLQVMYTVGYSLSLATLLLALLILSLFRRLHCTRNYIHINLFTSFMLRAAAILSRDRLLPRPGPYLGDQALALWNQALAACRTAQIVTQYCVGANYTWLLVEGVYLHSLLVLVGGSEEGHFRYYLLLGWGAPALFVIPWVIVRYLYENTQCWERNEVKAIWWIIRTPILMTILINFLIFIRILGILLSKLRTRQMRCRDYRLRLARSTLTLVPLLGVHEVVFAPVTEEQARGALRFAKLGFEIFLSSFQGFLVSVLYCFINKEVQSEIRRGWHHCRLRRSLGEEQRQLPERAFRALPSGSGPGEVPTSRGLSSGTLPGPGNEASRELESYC

B1: Example 233 (peptide)
chain: YXQGTFTSDFSQXLDKKAQXAFIEYLIEXGESSGAPPPSGE
modifications: non-natural residues; AEEA-γGlu-C18 diacid on Lys; C-terminal amide; synthetic construct; SITE 2: note = 2-Aminoisobutyric Acid; SITE 13: note = alpha-methyl-leucine; SITE 17: note = Lysine is chemically modified through conjugation of the epsilon-amino group of the Lysine side chain with (2-[2-(2-Amino-ethoxy)-ethoxy]-acetyl)-(gamma-Glu)-CO-(CH2) 16-CO2H; SITE 20: n
B2: Example 238 (peptide)
chain: B1 chain with Q12X, I27L, E31P, G34X, E41S
modifications: Aib, Orn, αMeL, lipidated Lys, C-terminal amide; synthetic construct; SITE 2: note = 2-Aminoisobutyric Acid; SITE 12: note = L-ornithine; SITE 13: note = alpha-methyl-leucine; SITE 17: note = Lysine is chemically modified through conjugation of the epsilon-amino group of the Lysine side chain with (2-[2-(2-Amino-ethoxy)-ethoxy]-acetyl)-(gamma-Glu)
B3: Example 285 (peptide)
chain: B1 chain with F10X, Q12K, E28A, E41S
modifications: synthetic construct; SITE 2: note = 2-Aminoisobutyric Acid; SITE 10: note = 3-(4-Pyridyl)-L-alanine; SITE 13: note = alpha-methyl-leucine; SITE 17: note = Lysine is chemically modified through conjugation of the epsilon-amino group of the Lysine side chain with (2-[2-(2-Amino-ethoxy)-ethoxy]-acetyl)
B4: Example 239 (peptide)
chain: B1 chain with Q12X, I27L, E31P, A35X, E41S
modifications: Aib, Orn, alpha-methyl-Leu, lipidated Lys, C-terminal amide; synthetic construct; SITE 2: note = 2-Aminoisobutyric Acid; SITE 12: note = L-ornithine; SITE 13: note = alpha-methyl-leucine; SITE 17: note = Lysine is chemically modified through conjugation of the epsilon-amino group of the Lysine side chain with (2-[2-(2-Amino-ethoxy)-ethoxy]-acetyl)-(gamma-Glu)
B5: Example 280 (peptide)
chain: B1 chain with F10X, Q12K, E41S
modifications: synthetic construct; SITE 2: note = 2-Aminoisobutyric Acid; SITE 10: note = 3-(4-Pyridyl)-L-alanine; SITE 13: note = alpha-methyl-leucine; SITE 17: note = Lysine is chemically modified through conjugation of the epsilon-amino group of the Lysine side chain with (2-[2-(2-Amino-ethoxy)-ethoxy]-acetyl)
B6: Example 278 (peptide)
chain: B1 chain with Q12X, I27L, E31P, E41T
modifications: synthetic construct; SITE 2: note = 2-Aminoisobutyric Acid; SITE 12: note = L-ornithine; SITE 13: note = alpha-methyl-leucine; SITE 17: note = Lysine is chemically modified through conjugation of the epsilon-amino group of the Lysine side chain with (2-[2-(2-Amino-ethoxy)-ethoxy]-acetyl)-(gamma-Glu)
B7: Example 883 (peptide)
chain: B1 chain with F10X, E28A, X29G, E31P
modifications: synthetic construct; SITE 2: note = 2-Aminoisobutyric Acid; SITE 10: note = 3-(4-Pyridyl)-L-alanine; SITE 13: note = alpha-methyl-leucine; SITE 17: note = Lysine is chemically modified through conjugation of the epsilon-amino group of the Lysine side chain with (gamma-Glu)2-CO-(CH2)16-CO2H; SITE 20:
B8: Example 282 (peptide)
chain: B1 chain with F10X, Q12K, A35E, E41S
modifications: synthetic construct; SITE 2: note = 2-Aminoisobutyric Acid; SITE 10: note = 3-(4-Pyridyl)-L-alanine; SITE 13: note = alpha-methyl-leucine; SITE 17: note = Lysine is chemically modified through conjugation of the epsilon-amino group of the Lysine side chain with (2-[2-(2-Amino-ethoxy)-ethoxy]-acetyl)
B9: Example 241 (peptide)
chain: B1 chain with Q12X, I27L, E31H, E41S
modifications: non-natural residues; C18 diacid-γGlu-AEEA on Lys; C-terminal amide; synthetic construct; SITE 2: note = 2-Aminoisobutyric Acid; SITE 12: note = L-ornithine; SITE 13: note = alpha-methyl-leucine; SITE 17: note = Lysine is chemically modified through conjugation of the epsilon-amino group of the Lysine side chain with (2-[2-(2-Amino-ethoxy)-ethoxy]-acetyl)-(gamma-Glu)
B10: Example 248 (peptide)
chain: B1 chain with Q12X, I27L, E31X
modifications: Aib, Orn, αMeL, 4Pal; lysine acylated C18 diacid; C-terminal amide; synthetic construct; SITE 2: note = 2-Aminoisobutyric Acid; SITE 12: note = L-ornithine; SITE 13: note = alpha-methyl-leucine; SITE 17: note = Lysine is chemically modified through conjugation of the epsilon-amino group of the Lysine side chain with (2-[2-(2-Amino-ethoxy)-ethoxy]-acetyl)-(gamma-Glu)

For the first test, the target named is hGLP-1R (Homo sapiens, UniProt P43220). Kind of test: cell-based or functional assay.
Sequence of hGLP-1R (P43220 24-463): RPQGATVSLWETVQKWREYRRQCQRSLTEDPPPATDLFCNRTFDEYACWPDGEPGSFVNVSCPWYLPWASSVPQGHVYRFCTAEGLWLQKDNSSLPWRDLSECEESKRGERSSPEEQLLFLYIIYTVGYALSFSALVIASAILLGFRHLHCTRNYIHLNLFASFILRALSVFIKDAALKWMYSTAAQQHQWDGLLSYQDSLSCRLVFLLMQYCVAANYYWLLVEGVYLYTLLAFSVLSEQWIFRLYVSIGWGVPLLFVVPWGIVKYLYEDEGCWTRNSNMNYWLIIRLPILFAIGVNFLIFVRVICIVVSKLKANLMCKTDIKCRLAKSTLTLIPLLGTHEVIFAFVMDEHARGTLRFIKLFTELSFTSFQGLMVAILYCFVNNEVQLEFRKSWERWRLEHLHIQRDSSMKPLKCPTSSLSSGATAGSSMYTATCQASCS
The molecule B1 returned a Relative cAMP EC50 of 0.874 nM and a cAMP Rel EC50, nM (1% HSA) of 223 nM.
In the same order, the values of B2 are 2.71 nM and 262 nM.
Turning to B3, the Relative cAMP EC50 came out at 2.87 nM and the cAMP Rel EC50 (in the presence of 1% HSA) amounted to 365 nM.
B4 gave a Relative cAMP EC50 of 2.9 nM and a cAMP Rel EC50, nM (1% HSA) of 419 nM.
Turning to B5, the Relative cAMP EC50 was 0.95 nM and the cAMP Rel EC50 (in the presence of 1% HSA) turned out to be 171 nM.
Consider B6, for which the Relative cAMP EC50 came out at 4.11 nM and the cAMP Rel EC50 (in the presence of 1% HSA) worked out at 241 nM.
As to B7, the Relative cAMP EC50 is 1.05 nM.
On to B8, for which the Relative cAMP EC50 was 1.09 nM and the cAMP Rel EC50 (in the presence of 1% HSA) came out at 217 nM.
B9: the Relative cAMP EC50 came out at 2.3 nM.
Regarding B10, the cAMP Rel EC50 (in the presence of 1% HSA) came to 438 nM.

In the next test the target is human GLP-1R (SNAP-GLP-1R expressed in HEK293 cells) (human) (UniProt P43220). Description: cell-based or functional assay.
Sequence of human GLP-1R (SNAP-GLP-1R expressed in HEK293 cells) (human) (P43220 24-463): as above
Molecule B1 registered a GLP1R Internalization EC50 of 24.8 nM and an Internalization % TOP of 41.8%.
The corresponding values for B2 are 32.1 nM and 38.2%.
Regarding B3, the GLP1R Internalization EC50 turned out to be 59.9 nM and the Internalization % TOP came out at 73.6%.
B4 came in with a GLP1R Internalization EC50 of 72.6 nM and an Internalization % TOP of 42.9%.
For B5, the GLP1R Internalization EC50 came out at 39.4 nM and the Internalization % TOP stood at 74.9%.
The corresponding values for B6 are 251 nM and 68.6%.
In the same order, the values of B7 are 23.9 nM and 77.1%.
In the same order, the values of B8 are 28.7 nM and 71.9%.
B9: the GLP1R Internalization EC50 is 64.4 nM and the Internalization % TOP came out at 37.6%.
The corresponding values for B10 are 67.4 nM and 39.5%.

In the next test the target is T1, human GIP receptor (human). Kind of test: cell-based or functional assay.
The molecule B1 registered a Relative cAMP EC50 of 0.0884 nM and a cAMP Rel EC50, nM (1% HSA) of 28.1 nM.
In the same order, the values of B2 are 0.0909 nM and 8.78 nM.
On to B3, for which the Relative cAMP EC50 came out at 0.0652 nM and the cAMP Rel EC50 (in the presence of 1% HSA) came out at 8.22 nM.
Take B4: the Relative cAMP EC50 was 0.0503 nM and the cAMP Rel EC50, nM (1% HSA) is 12 nM.
As to B5, the Relative cAMP EC50 is 0.105 nM and the cAMP Rel EC50 (in the presence of 1% HSA) was determined as 15.6 nM.
The corresponding values for B6 are 0.0963 nM and 7.69 nM.
B7 yielded a Relative cAMP EC50 of 0.0779 nM.
For the molecule B8, the Relative cAMP EC50 is 0.163 nM and the cAMP Rel EC50 (in the presence of 1% HSA) turned out to be 22.1 nM.
For B9, the Relative cAMP EC50 was 0.0748 nM.
With B10, the cAMP Rel EC50 (in the presence of 1% HSA) worked out at 10.6 nM.

For the next test, the target named is human glucagon receptor (human) (UniProt P47871). Kind of test: cell-based or functional assay.
Sequence of human glucagon receptor (human) (P47871 26-477): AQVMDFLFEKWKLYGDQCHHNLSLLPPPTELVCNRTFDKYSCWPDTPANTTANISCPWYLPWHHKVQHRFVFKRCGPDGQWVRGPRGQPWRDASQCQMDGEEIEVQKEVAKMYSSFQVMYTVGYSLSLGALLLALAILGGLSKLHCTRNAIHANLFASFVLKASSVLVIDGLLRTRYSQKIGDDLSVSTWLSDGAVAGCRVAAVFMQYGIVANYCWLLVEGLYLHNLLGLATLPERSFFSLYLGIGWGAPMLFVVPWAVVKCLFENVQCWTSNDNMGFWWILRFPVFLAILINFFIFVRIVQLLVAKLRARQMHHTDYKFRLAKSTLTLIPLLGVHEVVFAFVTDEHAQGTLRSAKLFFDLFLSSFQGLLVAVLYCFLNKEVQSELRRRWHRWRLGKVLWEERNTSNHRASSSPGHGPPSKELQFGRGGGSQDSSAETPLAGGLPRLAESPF
B1 returned a Relative cAMP EC50 of 2.25 nM and a cAMP Rel EC50, nM (1% HSA) of 453 nM.
B2 showed a Relative cAMP EC50 of 2.78 nM and a cAMP Rel EC50, nM (1% HSA) of 334 nM.
Turning to B3, the Relative cAMP EC50 was determined as 2.32 nM and the cAMP Rel EC50 (in the presence of 1% HSA) was 409 nM.
Regarding B4, the Relative cAMP EC50 was determined as 2.14 nM and the cAMP Rel EC50, nM (1% HSA) stood at 693 nM.
B5: the Relative cAMP EC50 stood at 8.63 nM and the cAMP Rel EC50 (in the presence of 1% HSA) was found to be 1600 nM.
In the same order, the values of B6 are 4.45 nM and 274 nM.
As to B7, the Relative cAMP EC50 amounted to 4.02 nM.
With B8, the Relative cAMP EC50 is 6.98 nM and the cAMP Rel EC50 (in the presence of 1% HSA) stood at 1830 nM.
As to B9, the Relative cAMP EC50 was found to be 2.71 nM.
Take B10: the cAMP Rel EC50 (in the presence of 1% HSA) stood at 241 nM.
